# Target: the molecule itself
# Assay: SEC
row,Protein,binding result
1,"His6-PafE, wild type, purified alone (natural protein) MVIGLSTGSDDDDVEVIGGVDPRLIAVQENDSDESSLTDLVEQPAKVMRIGTMIKQLLEEVRAAPLDEASRNRLRDIHATSIRELEDGLAPELREELDRLTLPFNEDAVPSDAELRIAQAQLVGWLEGLFHGIQTALFAQQMAARAQLQQMRQGALPPGVGKSGQHGHGTGQYL",binds
2,PafE_(F138E) (natural protein) MVIGLSTGSDDDDVEVIGGVDPRLIAVQENDSDESSLTDLVEQPAKVMRIGTMIKQLLEEVRAAPLDEASRNRLRDIHATSIRELEDGLAPELREELDRLTLPFNEDAVPSDAELRIAQAQLVGWLEGLFHGIQTALEAQQMAARAQLQQMRQGALPPGVGKSGQHGHGTGQYL,binds
3,PafE_(P65G) (natural protein) MVIGLSTGSDDDDVEVIGGVDPRLIAVQENDSDESSLTDLVEQPAKVMRIGTMIKQLLEEVRAAGLDEASRNRLRDIHATSIRELEDGLAPELREELDRLTLPFNEDAVPSDAELRIAQAQLVGWLEGLFHGIQTALFAQQMAARAQLQQMRQGALPPGVGKSGQHGHGTGQYL,binds
4,PafE-PafE linear dimer (PafE_(1-155)-PafE_(1-174)) (other) MVIGLSTGSDDDDVEVIGGVDPRLIAVQENDSDESSLTDLVEQPAKVMRIGTMIKQLLEEVRAAPLDEASRNRLRDIHATSIRELEDGLAPELREELDRLTLPFNEDAVPSDAELRIAQAQLVGWLEGLFHGIQTALFAQQMAARAQLQQMRQGAGSGNSMVIGLSTGSDDDDVEVIGGVDPRLIAVQENDSDESSLTDLVEQPAKVMRIGTMIKQLLEEVRAAPLDEASRNRLRDIHATSIRELEDGLAPELREELDRLTLPFNEDAVPSDAELRIAQAQLVGWLEGLFHGIQTALFAQQMAARAQLQQMRQGALPPGVGKSGQHGHGTGQYL,binds
